Numbering of substitutions follows the chain as printed.
B1: NBX0340 (VHH)
VHH: QVQLQESGGGLVQAGESLRLSCLAAGRTFSTSTLGWFRQAPGLEREFVAAIRYTSDYTARTTDYADSVKGRFAISRDYIKQAVYLQMNNLKPEDTAVYYCAAAKYGMGYSDPSGYTYWGQGTQVTVSS
B2: NBX0338 (VHH)
VHH: QVQLQESGGGLVQAGDSLRLSCATSGRSFSSYTMGWFRQTPGKEREFVAAISWSGTYYTDSVKGRFTISRDNAKNTVYLQMNSLKPEDTAVYYCAVGSRRLYYSSDINYWGQGTQVTVSS
B3: NBX0329 (VHH)
VHH: B2 VHH with D16G, R27L, S28T, F29V, S31R, E44D, R70V, T76M, V96A, S105N
B4: NBX0339 (VHH)
VHH: B2 VHH with R27L, S28T, F29V, S31R, T76M, V96A, Y102H
B5: NBX0330 (VHH)
VHH: QVQLQESGGGLVQAGGSLRLSCAASSRTFSNYAMAWFRQTPGKEREFLATINGDTTFTIYADSVKGRFTISRDNAKNTLYLQMNSLKAEDTAVYYCAARQWNPTMRERDYGYWGQGTEVTVSS

The binders below were run against T1, Cpa (phospholipase) (Clostridium perfringens, UniProt P0C216 29-398) (assay: phage ELISA, coated antigen).
T1 sequence: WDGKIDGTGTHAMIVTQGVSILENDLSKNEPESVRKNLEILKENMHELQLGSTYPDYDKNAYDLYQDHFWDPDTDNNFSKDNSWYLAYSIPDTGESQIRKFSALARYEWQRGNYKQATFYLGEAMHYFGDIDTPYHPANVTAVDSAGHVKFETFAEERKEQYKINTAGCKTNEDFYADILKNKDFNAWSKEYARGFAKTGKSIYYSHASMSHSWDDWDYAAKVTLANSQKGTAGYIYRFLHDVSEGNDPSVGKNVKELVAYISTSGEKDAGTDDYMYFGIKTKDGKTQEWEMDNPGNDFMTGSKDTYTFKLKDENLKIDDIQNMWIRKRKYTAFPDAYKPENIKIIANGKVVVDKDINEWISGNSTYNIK

Binder | binding result
B1 | binds
B2 | binds
B3 | binds
B4 | binds
B5 | binds

— patent publication US20210269512A1 (NOVOBIND LIVESTOCK THERAPEUTICS, published 2021)
